Measured values from article PMC12724136, “Design of antibody structure-guided epitope vaccines in silico to induce potent immune responses against emerging viruses” (Journal of Virology, 2025).

Key:
scFv1 = assay: Western blot, binding of S3 epitope peptide and mutants to GST-scFv1; parameters: species or system Nile tilapia (Oreochromis niloticus); details: PVDF membrane with GST-scFv1 incubated with S3 proteins 37°C 2 h; 6×His tag antibody
Protocol: The PET-N-GST-scFv1 plasmid was constructed using seamless cloning technology (Vazyme), and the protein was obtained through a prokaryotic expression system. The scFv1 protein was purified using GST resin (Beyotime) and stored after lyophilization. Similarly, S3-WT, S3-MuT-^Y386^A, S3-MuT-^R393^A, S3-MuT-^L398^A, and S3-MuT were expressed in prokaryotes using the pET32a plasmid. In the Western blot experiment, after blocking, the PVDF membrane containing GST-scFv1 blots was incubated with each of the five S3 proteins at 37°C for 2 h. Subsequently, the anti-6×His tag mouse mAb was used as the primary antibody, and HRP-conjugated goat anti-mouse IgG was used as the secondary antibody. The ECL color development steps were performed as described above.

tilapia IgM = assay: Serum antibody levels of tilapia after immunization with epitope peptides (ELISA); format: in vivo, Nile tilapia (Oreochromis niloticus); details: 20 µg peptide i.m. with Freund's adjuvant, 7-28 days
Text: Epitope vaccines usually need to be modified with Freund’s adjuvant (Beyotime) before immunization. Briefly, for a single immunization, the epitope peptide is mixed with an equal dose of complete Freund’s adjuvant and then administered to tilapia. For booster immunization, an equal dose of incomplete Freund’s adjuvant is fused with the epitope peptide before vaccination. For the S1, S3, and S10 epitope vaccine immunization programs, healthy Oreochromis niloticus were divided into six groups (70 fish per group) and vaccinated with 20 µg of peptide vaccine by intramuscular injection. During the 1–4 week immunization period, we collected four fish serum samples weekly for immunological analysis.
In the immunization experiments based on the P30-designed vaccine, healthy Nile tilapia were divided into four groups (70 fish per group) and injected intramuscularly with 20 µg of peptide vaccine to complete the primary immunization. After 14 days, the same dose of vaccine was administered again to complete the booster immunization. Serum and tissue samples were collected from 4 fishes in each group weekly after the primary immunization, for a total of 6 weeks. Furthermore, a PBS control was incorporated into both immunization experiments, and the immunization process was conducted in accordance with the aforementioned methodology.
Serum antibody levels after immunization were determined by indirect ELISA. Specifically, serum samples were diluted appropriately, coated to enzyme-labeled plates, and incubated overnight at 4°C. After being washed three times with PBST buffer, each well was incubated with mouse anti-tilapia IgM mAb (1:5,000) at 37°C for 1 h. After washing, each well was incubated with HRP-conjugated goat anti-mouse IgG (1:5,500) for an additional hour. Color development was carried out as described above.

TiLV-positive antibody = assay: Depletion of TiLV-positive antibodies by epitope peptides (ELISA); format: binding, tilapia; details: TiLV-positive antibody diluted 800-fold, 10 depletion cycles
Protocol: The epitope peptide to be detected was coated on the ELISA plate at 37°C for 2 h. After washing with PBST, it was blocked with 2% skim milk powder for 2 h to reduce non-specific binding. The TiLV-positive antibody was diluted 800-fold and added to the wells at 100 µL per well. After incubation at room temperature for 20 min, the liquid was aspirated. The ELISA plate was briefly washed, and then, the serum was added again. This process was repeated 10 times, and then, the serum was collected. An ELISA was performed on the collected serum to detect the level of tilapia IgM. Blank and non-depleted negative controls were set up in the experiment. The depletion rate was calculated as follows: Depletion rate = (OD450 of non-depleted sample − OD450 of detected sample) / OD450 of non-depleted sample × 100%.

TiLV [1] = assay: Indirect ELISA, affinity of scFv for TiLV; format: binding, tilapia lake virus (TiLV)
Protocol: The scFv affinity assay was performed by indirect ELISA. The virus (4 × 10^3 copies/μL) was incubated overnight at 4°C after being coated in the wells. After blocking with 5% skim milk, 100 µL of scFv1 and scFv3 proteins at the same concentrations (0.01–100 μg/mL) were added and incubated. Meanwhile, BSA proteins with the same concentration gradient were used as controls. The primary and secondary antibodies were 6×His tag mouse mAb and HRP-conjugated goat anti-mouse IgG, respectively, following the previous protocol. The color development and readings were performed as described above. The scFvs obtained from both the prokaryotic and eukaryotic expression systems were verified for their affinity to TiLV. Meanwhile, the BSA protein was used as a negative control.

TiLV [2] = assay: Cellular fluorescence analysis of binding between scFv1 and TiLV in CIK cells; format: cell-based; details: GST-scFv1 incubated 24 h with TiLV-infected CIK cells
Protocol: After being cultured for 48 h, CIK cells grew into a monolayer and were then continuously incubated with TiLV virus at 28°C for 72 h. Subsequently, the culture medium was replaced, and the cells were incubated with GST-scFv1 protein for 24 h to ensure binding to TiLV particles. The cells were fixed with 4% paraformaldehyde at room temperature for 10 min and then incubated with immunostaining permeabilization buffer with Triton X-100 for 10 min. Subsequently, the GST mouse mAb (1:500, Beyotime) was used as the primary antibody and incubated with CIK cells at 4°C overnight, and FITC-labeled goat anti-mouse IgG (1:500, Beyotime) was used as the secondary antibody. After DAPI staining, the cells were observed under a fluorescence microscope. Cells that were not incubated with GST-scFv1 protein served as the control.

TiLV [3] = assay: In vivo protection study of scFv1 against TiLV infection in tilapia; parameters: species or system Nile tilapia (Oreochromis niloticus); details: scFv1 10 μg/g i.p. 12 h after TiLV
Protocol: Healthy Nile tilapia (Oreochromis niloticus) with a body weight of approximately 3.2±0.6 g were selected. After being temporarily cultured in a circulating water aquaculture system, they were randomly divided into a neutralization experimental group, a virus control group, and a BSA control group, with 30 fish in each group. In the experimental group, 50 μL of TiLV virus suspension (8×10^3 copies/μL) was injected intraperitoneally. Twelve hours later, a solution of scFv1 diluted in PBS at a dose of 10 μg/g was injected intraperitoneally. In the BSA control group, after injecting the same dose of TiLV, BSA solution of the same concentration was used instead of the scFv1. In the virus control group, only virus was injected. Meanwhile, a blank control was set up. After the injection, the mortality of tilapia was observed and recorded continuously for 10 days, and the cumulative mortality rate was calculated.

Molecule	binding to GST-scFv1 by Western blot (scFv1)	immunogenicity (serum antibody titer) after single immunization (tilapia IgM)	TiLV-positive antibody depletion rate (TiLV-positive antibody)	EC50 of the scFv expressed in CHO cells that binds to TiLV (TiLV [1]; indirect ELISA, scFv from CHO expression system)	EC50 for the binding of scFv to TiLV (TiLV [1]; indirect ELISA, scFv from prokaryotic expression, coated virus 4 × 10^3 copies/μL, scFv 0.01–100 μg/mL)	EC50 of scFv1 fold lower than that of scFv3 (TiLV [1]; prokaryotic expression, binding to TiLV)	binding to TiLV on infected CIK cells (green fluorescence) (TiLV [2])	increase of the survival rate of TiLV-infected tilapia (TiLV [3])
GYQLASEIRGTIPLSS [S3WT]	able to bind	highest immunogenicity	~70%	–	–	–	–	–
scFv1: tilapia-derived single-chain antibody fragment with high affinity for TiLV, from phage library (protein, left off: 6×His, end not stated, kept | thioredoxin (from the vector pET32a), end not stated, state not stated) scFv: MSHRLTCAYSGFSSDIHAVWVRQAAGKGLEWIAYISDSSAYIYYSQSVRGRFTISRDNSRKQVYLQMNSLTTEDSAVYYCTREGSGFAFDYWGKGTGGGGSGGGGSGGGGSVTISATGSSNIGADLSWYLQKTGETPKLLIYKASTRSSGTPPRFSGSTSGSQYTLTISGVQAEDAGDYYCLGDHGGGALTFGGGTK	–	–	–	2.098 µg/mL	33.06 µg/mL	3.22 fold	had bound to TiLV	~30%
